Key:
Assay in all cases: cell-based or functional assay
[1] = target: all H3N2 and H7 strains (plaque reduction assay)
[2] = target: HA of A/California/04/2009 (H1N1) virus (influenza A virus A/California/04/2009 (H1N1))
[3] = target: HA of wild type A/Shanghai/1/2013 (H7N9) virus (influenza A virus A/Shanghai/1/2013 (H7N9))

B1: S6-B01 (antibody, V domains shown)
VH: QVQLVQSGAEVKKPGASVKVSCKASGYTFNSYGISWVRQAPGQGLEWMGWISAYTGDTKFAQNVQGRVTMTIDTSTSTAYMELRSLRSDDTAVYYCARHYLQGVVVVDPYSHAMDVWGQGTTVTVSS
VL: EIVLTQSPGTLSFFPGERATLSCRASQTINSRFLAWYQQKPGQAPRLLIYGASSRATGIPDRFSGRGSGTDFTLAISRLEPEDFAVYYCQLYGSSRTTFGQGTKVEIK
In the case of B1, the PRNT50 (plaque reduction assay) [1] is reported as 3 to 6 µg/mL and the PRNT50 (plaque reduction assay) [2] is reported as over 120 µg/mL.

B2: 042-100809-2F04 (antibody, V domains shown)
VH: EVQLVESGGGLVQPGGSLRLSCVASGFTFSTPWMTWIRQAPGKGLEWVAHIKQDGSETYYVDSVKGRFTISRDNAKNSLYLQMNSLKAEDTALYYCARMTRESSENYWGQGTLVTVSS
VL: DVVMTQSPLSLPVTLGQPASISCRSSQSLVYSDGDTFLEWFQQRPGQSPRRLIYKVSNRDSGVPDRFSGSGSGTDFTLKISRVEAEDVGLYYCMQHTHWPHTFGQGTKVEIK
B2 was tested, and the PRNT50 (plaque reduction assay) [3] was 27 µg/mL.

Source: patent US20170360931A1
